The values below come from patent US11739333B2, “Regulation of gene expression by aptamer-modulated RNase p cleavage” (MeiraGTx UK II Limited, priority 2017, dated 2023).

For data set [1], the system named is luciferase target gene expression in HEK 293 cells. Nature of the data set: Firefly luciferase assay of cultured cells, mascRNA inserted in 3' UTR. The format is cell-based. Conditions: no ligand. How it is done: Plasmid constructs: DNA fragments containing mouse mascRNA sequence and restriction sites at each end were synthesized (IDT), and digested and cloned into a plasmid backbone Con 8 that contains CMV enhancer/promoter and human beta-globin polyadenylation sequence. All constructs were verified by DNA sequencing (Genewiz).
Firefly luciferase assay of cultured cells: 3.5×10^4 HEK 293 cells were plated in 96-well flat bottom plate the day before transfection. Plasmid DNA (500 ng) was added to a tube or a 96-well U-bottom plate. Separately, TransIT-293 reagent (Minis; 1.4 μL) was added to 50 μL opti-mem I media (Life Technologies) and allowed to sit for 5 minutes at room temperature (“RT”). Then, 50 μL of this diluted transfection reagent was added to the DNA, mixed, and incubated at RT for 20 min. Finally, 7 μL of this solution was added to a well of cells in a 96-well plate. 4 hours after transfection, medium containing transfection solution was replaced with fresh medium. 24 hours after media change, plates were removed from the incubator, and equilibrated to RT for several minutes on a lab bench, then aspirated. […] Following a 5-min incubation at RT, luminescence was measured using a Tecan machine with 500 mSec read time. The luciferase activity was expressed as mean arbitrary light unit (ALU)±S.D.

Data set [2] concerns luciferase target gene expression in HEK 293 cells (aptamer-modulated RNase P cleavage of mRNA). Nature of the data set: Firefly luciferase assay of transfected cells treated with or without aptamer ligand. The format is cell-based. How it is done:
Firefly luciferase assay of cultured cells: 3.5×10^4 HEK 293 cells were plated in 96-well flat bottom plate the day before transfection. Plasmid DNA (500 ng) was added to a tube or a 96-well U-bottom plate. Separately, TransIT-293 reagent (Minis; 1.4 μL) was added to 50 μL opti-mem I media (Life Technologies) and allowed to sit for 5 minutes at room temperature (“RT”). Then, 50 μL of this diluted transfection reagent was added to the DNA, mixed, and incubated at RT for 20 min. Finally, 7 μL of this solution was added to a well of cells in a 96-well plate. 4 hours after transfection, medium containing transfection solution was replaced with fresh medium. 24 hours after media change, plates were removed from the incubator, and equilibrated to RT for several minutes on a lab bench, then aspirated. Glo-lysis buffer (Promega, 100 μL, RT) was added, and the plates allowed to remain at RT for at least 5 minutes. Then, the well contents were mixed by 50 μL trituration, and 20 μL of each sample was mixed with 20 μL of bright-glo reagent (Promega) that had been diluted to 10% in glo-lysis buffer. 96 wells were spaced on an opaque white 384-well plate. Following a 5-min incubation at RT, luminescence was measured using a Tecan machine with 500 mSec read time. The luciferase activity was expressed as mean arbitrary light unit (ALU)±S.D.
Plasmid constructs: oligonucleotide fragments containing mascRNA and guanine aptamer sequences (Mandal, M, et al., Cell 113, 577-586 (2003), incorporated herein by reference) were synthesized (IDT) and cloned into a luciferase (Luci) expression construct (Con8) in the 3′ UTR region using compatible restriction sites BamHI and XhoI. All the constructs were verified by DNA sequencing (Genewiz).
Firefly luciferase assay of cultured cells: cells were transfected as described in Example 1. Four hours after transfection, medium containing transfection solution was replaced by medium with either 0.5% DMSO as solvent control or 500 μM guanosine (Sigma) as aptamer ligand. Twenty-two to twenty-four hours after treatment, a luciferase assay was performed as described in Example 1.
Plasmid construction: a DNA fragment containing sequences for the guanine aptamer xpt-G and human arginine pre-tRNA (Nashimoto M. N. et al. Long 5′ leaders inhibit removal of a 3′ trailer from a precursor tRNA by mammalian tRNA 3′ processing endoribonuclease. Nucleic Acids Research, 1999; 27(13): 2770-2776) were synthesized (IDT). The synthesized DNA fragments were digested with BamHI and XhoI restriction enzymes and cloned into the Con8 construct digested with the same restriction enzymes. Construct sequences were verified by DNA sequencing (Genewiz).
Plasmid construction: a DNA fragment containing sequences for the adenine aptamer ydhl-A (M. Mandal and R. R. Breaker, Adenine riboswitches and gene activation by disruption of a transcription terminator. Nature Structural & Molecular Biology. 2004; 11: 29-35, incorporated herein by reference) or theophylline aptamer (G. R. Zimmerman, et al. Interlocking structural motifs mediate molecular discrimination by a theophylline-binding RNA. Nature Structural Biology. 1997; 4: 644-649, incorporated herein by reference), and mascRNA sequence were synthesized (IDT). The synthesized DNA fragments were digested with BamHI and XhoI restriction enzymes and cloned into Con8 digested with the same restriction enzymes. Construct sequences were verified by DNA sequencing (Genewiz).
Four hours after transfection, the media was aspirated, and new media with NaOH (1 mM) as solvent or 1 mM adenine (Calbiochem), or 3 mM theophylline (Sigma) was added. The induction fold was expressed as the quotient of luciferase activity obtained in the presence of aptamer ligand divided by the value obtained in the absence of the aptamer ligand. […]

With “Luci-mascRNA-mlp: luciferase construct with mascRNA mutated in the T-loop from UUC to AAG, negative control (GACGCUGGUGGCUGGCACUCCUGGUUUCCAGGACGGGGAAGAAGUCCCUGCGGUGUCU)”, in data set [1], the “decrease in luciferase expression compared to the luciferase construct that has no mascRNA (Luci)” value is reported as 20%.

B1: YM: SEQ ID NO: 15; ydhl-A adenine aptamer and mascRNA in luciferase 3' UTR (nucleic acid)
chain: CCTCATAAAGGCCAAGAAGGGCGGAAAGATCGCCGTGTAAGGATCCAAGACGAGCTGTACAAGTAAAGCGGCCGTAATGTTATAACCTCAATAATATGGTTTGAGGGTGTCTACCAGGAACCGTAAAATCCTGATTAACATTACGACGCTGGTGGCTGGCACTCCTGGTTTCCAGGACGGGGTTCAAGTCCCTGCGGTGTCTTTGCTTGGATCGGCCGCGACTCTAGAGTCGACCTGCAGGCATGCAAGCTTCAGCTGCTCGAGGGCCCAGATCTAATTCACCCCACCAGTGCAGGCTGCCTATCAG
In the case of B1, the “fold increase in luciferase expression with adenine” value in data set [2] (1 mM adenine vs NaOH solvent) was 3.3 fold.

B2: TheoM: SEQ ID NO: 16; theophylline aptamer and mascRNA in luciferase 3' UTR (nucleic acid)
chain: CCTCATAAAGGCCAAGAAGGGCGGAAAGATCGCCGTGTAAGGATCCAAGACGAGCTGTACAAGTAAAGCGGCCTAATGTGATACCAGCCGAAAGGCCCTTGGCAGCACATTAGACGCTGGTGGCTGGCACTCCTGGTTTCCAGGACGGGGTTCAAGTCCCTGCGGTGTCTTTGCTTGGATCGGCCGCGACTCTAGAGTCGACCTGCAGGCATGCAAGCTTCAGCTGCTCGAGGGCCCAGATCTAATTCACCCCACCAGTGCAGGCTGCCTATCAG
In the case of B2, the “fold increase in luciferase expression with theophylline” value in data set [2] (3 mM theophylline vs solvent) is 4.1 fold. Further, the “luciferase level as % of the control Con8 construct” value in data set [2] (absence of theophylline treatment) was “approximately 43.4%”.
